Reference: IntAct's records for PubMed 31515488

B1: Transcription factor 12 (Homo sapiens), Q99081-3 (parent)
chain: MNPQQQRMAAIGTDKELSDLLDFSAMFSPPVNSGKTRPTTLGSSQFSGSGIDERGGTTSWGTSGQPSPSYDSSRGFTDSPHYSDHLNDSRLGAHEGLSPTPFMNSNLMGKTSERGSFSLYSRDTGLPGCQSSLLRQDLGLGSPAQLSSSGKPGTAYYSFSATSSRRRPLHDSAALDPLQAKKVRKVPPGLPSSVYAPSPNSDDFNRESPSYPSPKPPTSMFASTFFMQDGTHNSSDLWSSSNGMSQPGFGGILGTSTSHMSQSSSYGNLHSHDRLSYPPHSVSPTDINTSLPPMSSFHRGSTSSSPYVAASHTPPINGSDSILGTRGNAAGSSQTGDALGKALASIYSPDHTSSSFPSNPSTPVGSPSPLTGTSQWPRPGGQAPSSPSYENSLHSLKNRVEQQLHEHLQDAMSFLKDVCEQSRMEDRLDRLDDAIHVLRNHAVGPSTSLPAGHSDIHSLLGPSHNAPIGSLNSNYGGSSLVASSRSASMVGTHREDSVSLNGNHSVLSSTVTTSSTDLNHKTQENYRGGLQSQSGTVVTTEIKTENKEKDENLHEPPSSDDMKSDDESSQKDIKVSSRGRTSSTNEDEDLNPEQKIEREKERRMANNARERLRVRDINEAFKELGRMCQLHLKSEKPQTKLLILHQAVAVILSLEQQVRERNLNPKAACLKRREEEKVSAVSAEPPTTLPGTHPGLSETTNPMGHM
B2: Tuftelin-interacting protein 11 (Homo sapiens), Q9UBB9 (parent)
chain: MSLSHLYRDGEGRIDDDDDERENFEITDWDLQNEFNPNRQRHWQTKEEATYGVWAERDSDDERPSFGGKRARDYSAPVNFISAGLKKGAAEEAELEDSDDEEKPVKQDDFPKDFGPRKLKTGGNFKPSQKGFAGGTKSFMDFGSWERHTKGIGQKLLQKMGYVPGRGLGKNAQGIINPIEAKQRKGKGAVGAYGSERTTQSMQDFPVVDSEEEAEEEFQKELSQWRKDPSGSKKKPKYSYKTVEELKAKGRISKKLTAPQKELSQVKVIDMTGREQKVYYSYSQISHKHNVPDDGLPLQSQQLPQSGKEAKAPGFALPELEHNLQLLIDLTEQEIIQNDRQLQYERDMVVNLFHELEKMTEVLDHEERVISNLSKVLEMVEECERRMQPDCSNPLTLDECARIFETLQDKYYEEYRMSDRVDLAVAIVYPLMKEYFKEWDPLKDCTYGTEIISKWKSLLENDQLLSHGGQDLSADAFHRLIWEVWMPFVRNIVTQWQPRNCDPMVDFLDSWVHIIPVWILDNILDQLIFPKLQKEVENWNPLTDTVPIHSWIHPWLPLMQARLEPLYSPIRSKLSSALQKWHPSDSSAKLILQPWKDVFTPGSWEAFMVKNIVPKLGMCLGELVINPHQQHMDAFYWVIDWEGMISVSSLVGLLEKHFFPKWLQVLCSWLSNSPNYEEITKWYLGWKSMFSDQVLAHPSVKDKFNEALDIMNRAVSSNVGAYMQPGARENIAYLTHTERRKDFQYEAMQERREAENMAQRGIGVAASSVPMNFKDLIETKAEEHNIVFMPVIGKRHEGKQLYTFGRIVIYIDRGVVFVQGEKTWVPTSLQSLIDMAK
partner: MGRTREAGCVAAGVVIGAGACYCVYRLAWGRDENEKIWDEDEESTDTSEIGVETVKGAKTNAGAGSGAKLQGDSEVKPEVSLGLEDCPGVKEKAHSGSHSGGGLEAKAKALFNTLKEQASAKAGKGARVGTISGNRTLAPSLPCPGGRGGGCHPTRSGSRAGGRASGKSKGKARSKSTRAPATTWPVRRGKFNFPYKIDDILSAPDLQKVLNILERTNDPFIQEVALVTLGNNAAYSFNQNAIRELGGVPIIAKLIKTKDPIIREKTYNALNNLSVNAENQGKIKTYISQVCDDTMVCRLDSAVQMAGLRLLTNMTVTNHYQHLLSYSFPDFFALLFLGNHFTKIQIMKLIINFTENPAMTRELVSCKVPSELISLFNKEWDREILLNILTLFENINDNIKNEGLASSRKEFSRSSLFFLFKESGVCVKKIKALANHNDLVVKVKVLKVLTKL

Variants of: B1
Settings: with cdn2c_human CDKN2C

Variant	effect of a mutation on the interaction
A482V	with no effect
S446F	with no effect
Y120C	with no effect
N606H	with no effect
R74G	with no effect

Variants of: B1
Settings: with psa1_human PSMA1, P25786
Sequence of psa1_human PSMA1, P25786 (P25786 whole entry): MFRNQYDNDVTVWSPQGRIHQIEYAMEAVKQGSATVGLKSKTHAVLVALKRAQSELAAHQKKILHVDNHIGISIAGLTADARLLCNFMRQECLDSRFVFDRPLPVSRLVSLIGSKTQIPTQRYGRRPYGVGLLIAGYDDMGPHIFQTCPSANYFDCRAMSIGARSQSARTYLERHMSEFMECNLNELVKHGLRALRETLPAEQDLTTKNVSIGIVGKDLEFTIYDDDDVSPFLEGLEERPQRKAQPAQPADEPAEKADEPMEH

Variant	effect of a mutation on the interaction
A482V	with no effect
S446F	with no effect
Y120C	with no effect
N606H	with no effect
R74G	with no effect

Variants of: B2
Settings: with armx1_human ARMCX1, Q9P291

Variant	effect of a mutation on the interaction
S688L	with no effect
R8Q	with no effect
